Measured values reported in paper PMC7290806, “VviWRKY40, a WRKY Transcription Factor, Regulates Glycosylated Monoterpenoid Production by VviGT14 in Grape Berry”.

Target: T1, VviWRKY40 (Vitis vinifera 'Muscat blanc à Petit …, UniProt E7BTN0 1-317)
T1 sequence: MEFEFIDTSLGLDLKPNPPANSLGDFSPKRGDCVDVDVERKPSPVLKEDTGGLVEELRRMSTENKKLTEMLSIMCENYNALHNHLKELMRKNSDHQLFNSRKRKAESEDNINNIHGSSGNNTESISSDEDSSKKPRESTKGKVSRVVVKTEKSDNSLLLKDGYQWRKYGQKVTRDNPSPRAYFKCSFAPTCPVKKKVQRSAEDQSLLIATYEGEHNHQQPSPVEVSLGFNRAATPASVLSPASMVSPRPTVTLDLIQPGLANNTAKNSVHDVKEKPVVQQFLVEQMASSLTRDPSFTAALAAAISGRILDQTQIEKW
Experiment: EMSA; shift without cold probe and with up to 50x cold probe; 50x and 200x unlabeled self-competitor tested; EMSA: LightShift Chemiluminescent kit, 50 ng protein, 15 ng probe, room temperature, 25 min (buffer and pH not stated); pull-down: poly(dI-dC), DTT, EDTA, EGTA, 4 °C, 1 h
Conditions: protein: recombinant; tags: 6xHis, pET32a fusion (19 kDa tag, 55 kDa in total); label: 3' biotin (Methods also says digoxigenin-labeled); blunt (duplex implied, only one strand printed)

B1: VviGT14 promoter 41-bp w-box fragment (dsDNA)
DNA 1: AGAAGTGAGAGGGTAAGTTGACCATGCACTCTCATCTAGAT
DNA 2: ATCTAGATGAGAGTGCATGGTCAACTTACCCTCTCACTTCT
  binding result: binds
